Data on four molecules can be found in publication PMC4203122, “Insights into transcriptional regulation of β-D-N-acetylhexosaminidase, an N-glycan-processing enzyme involved in ripening-associated fruit softening”.

Series [1] deals with T1, RIN139N (GST-RIN, N-terminal) (Solanum lycopersicum, UniProt Q8S4L4 1-139). The series can be described thus: EMSA; intense signal; 20 mM HEPES pH 7.5, 20% glycerol, 0.05 ug poly(dIdC), 2.5 mM EDTA, 2.5 mM DTT, 25 mM NaCl, plus 0.8 mM ZnCl2 (SlASR1) or 10 mM MgCl2 (RIN), 25 C, 30 min; 6% native PAGE 0.5x TBE. Particulars: protein: recombinant; tags: N-terminal GST; chain copies: 2; label: 5'-32P. A general note: In EMSA bound probe runs differently from free probe, usually more slowly.

Series [2] deals with T1, RIN139N (GST-RIN, N-terminal). The series can be described thus: EMSA; 20 mM HEPES pH 7.5, 20% glycerol, 0.05 ug poly(dIdC), 2.5 mM EDTA, 2.5 mM DTT, 25 mM NaCl, plus 0.8 mM ZnCl2 (SlASR1) or 10 mM MgCl2 (RIN), 25 C, 30 min; 6% native PAGE 0.5x TBE. The note with it: protein: recombinant; tags: N-terminal GST; chain copies: 2; label: 5'-32P.

T1 sequence (Q8S4L4 entry or part of it): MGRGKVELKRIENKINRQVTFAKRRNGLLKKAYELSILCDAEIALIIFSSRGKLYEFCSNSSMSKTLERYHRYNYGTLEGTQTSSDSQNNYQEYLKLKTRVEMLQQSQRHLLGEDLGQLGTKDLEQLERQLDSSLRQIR

B1: CArG box 5 (26 bp) (dsDNA)
DNA 1: CACAAAAACATAATTATGCTTCTTAC
DNA 2: GTAAGAAGCATAATTATGTTTTTGTG
For B1, in series [1], the binding result is listed as “binds”.

B2: CArG (26 bp, box 6) (dsDNA)
DNA 1: TTCATATTCCAAAATTTGATATTTTA
DNA 2: TAAAATATCAAATTTTGGAATATGAA
Turning to B2, in series [1], the binding result is recorded as “binds”.

B3: SlASR1 promoter CArG (26 bp) (dsDNA)
DNA 1: AAGCAAAACATAAAATTGACTTGAAT
DNA 2: ATTCAAGTCAATTTTATGTTTTGCTT
As for B3, the binding result in series [2] is recorded as “binds”.

B4: mCArG (26 bp, box 6 mutated) (dsDNA)
DNA 1: TTCATATTTCAAAATTTAATATTTTA
DNA 2: TAAAATATTAAATTTTGAAATATGAA
Consider B4, for which, in series [2], the binding result is listed as “no binding”.
